Experiments:
[1] = target: T1, human B-cell associated protein-37 (human BAP-37) (human, UniProt O35129 1-299 (mouse entry), limits assumed); assay: cell-based or functional assay
[2] = target: T1, human B-cell associated protein-37 …; assay: cell-based or functional assay; remark: listed apart in the source

T1 sequence (O35129 whole entry): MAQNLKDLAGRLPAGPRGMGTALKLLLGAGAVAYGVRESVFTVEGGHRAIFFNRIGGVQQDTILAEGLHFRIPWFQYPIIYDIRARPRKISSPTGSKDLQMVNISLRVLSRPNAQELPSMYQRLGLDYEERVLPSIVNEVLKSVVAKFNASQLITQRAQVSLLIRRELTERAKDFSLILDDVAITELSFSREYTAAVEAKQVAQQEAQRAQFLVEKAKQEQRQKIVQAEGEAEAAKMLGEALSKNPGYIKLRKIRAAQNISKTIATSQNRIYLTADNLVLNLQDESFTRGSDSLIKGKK

endogenous epsilon inhibition ratio (TAQMAN quantitative PCR, +IL-4/+Dox to +IL-4/-Dox) [1]	Reporter Ratio (A5T4 reporter line, IL-4 induced germline epsilon transcription) [2]	Binder
2.15	1.39	TGVHVELQINRSIMHYISSP [peptide CL08wt]
–	1.17	TGAAVELQINRSIMHYISSP [peptide CL08VH]
–	1.6	TGVHVELQIAASIMHYISSP [peptide CL08NR]

— patent publication US20040014649A1 (RIGEL PHARMACEUTICALS, published 2004)
